Reference: PMC10042849

Biological target: EndoS2_(E186L), catalytically inactive EndoS2 (Streptococcus pyogenes (serotype M49)) (UniProt T1WGN1)
Assay: NMR titration; methyl-TROSY (1H,13C HMQC) spectra of MILV methyl-labelled enzyme (45-128 µM) titrated with ligand; 2D lineshape fitting with TITAN, two-state binding model; 20 mM Tris-d11 pH* 7.50, 50 mM NaCl in D2O; 600 MHz, 298 K

Fc region of the IgG1 monoclonal antibody Rituximab (Fc-Rituximab) (from UniProt P01857 1-328) (domain or fragment)
Kd: 3.1 µM | koff: 4 s⁻¹ | kon: 1.3e+06 M⁻¹ s⁻¹
